# Assay results as given in publication doi:10.1101/2024.04.17.589974 (bioRxiv, 2024).
# Substitutions are numbered along the chain they refer to.
# T1: VE-cadherin (wild type, mouse) (mouse (endogenous in lung of C57BL/6 …, UniProt P55284 46-784))
# T1 sequence (looked up): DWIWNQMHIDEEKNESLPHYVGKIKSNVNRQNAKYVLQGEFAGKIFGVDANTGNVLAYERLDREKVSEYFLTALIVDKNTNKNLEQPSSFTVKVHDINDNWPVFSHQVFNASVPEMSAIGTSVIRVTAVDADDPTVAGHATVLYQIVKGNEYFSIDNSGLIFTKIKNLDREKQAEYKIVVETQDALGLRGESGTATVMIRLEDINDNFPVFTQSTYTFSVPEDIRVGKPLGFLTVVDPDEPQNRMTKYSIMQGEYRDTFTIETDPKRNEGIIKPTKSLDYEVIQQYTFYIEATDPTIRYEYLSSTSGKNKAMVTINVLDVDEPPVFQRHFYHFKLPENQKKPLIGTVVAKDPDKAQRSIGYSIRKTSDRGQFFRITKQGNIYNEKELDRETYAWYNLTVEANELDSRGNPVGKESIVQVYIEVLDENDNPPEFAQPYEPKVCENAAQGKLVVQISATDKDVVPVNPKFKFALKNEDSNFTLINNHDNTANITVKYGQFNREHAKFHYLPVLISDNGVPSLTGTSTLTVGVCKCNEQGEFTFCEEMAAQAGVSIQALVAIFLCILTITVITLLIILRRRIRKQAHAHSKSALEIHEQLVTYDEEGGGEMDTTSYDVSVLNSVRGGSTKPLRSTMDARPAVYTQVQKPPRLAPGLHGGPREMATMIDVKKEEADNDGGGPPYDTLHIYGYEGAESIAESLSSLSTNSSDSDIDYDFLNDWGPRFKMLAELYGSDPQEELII
# T2: Y685F-VE-cadherin (knock-in mutant, mouse) (mouse (endogenous in lung of C57BL/6 …, UniProt P55284 46-784, Y685F))
# T2 sequence (looked up): T1 sequence (looked up) with Y640F
# B1: β-catenin (natural protein, UniProt Q02248 1-781, looked up)
# chain: MATQADLMELDMAMEPDRKAAVSHWQQQSYLDSGIHSGATTTAPSLSGKGNPEEEDVDTSQVLYEWEQGFSQSFTQEQVADIDGQYAMTRAQRVRAAMFPETLDEGMQIPSTQFDAAHPTNVQRLAEPSQMLKHAVVNLINYQDDAELATRAIPELTKLLNDEDQVVVNKAAVMVHQLSKKEASRHAIMRSPQMVSAIVRTMQNTNDVETARCTAGTLHNLSHHREGLLAIFKSGGIPALVKMLGSPVDSVLFYAITTLHNLLLHQEGAKMAVRLAGGLQKMVALLNKTNVKFLAITTDCLQILAYGNQESKLIILASGGPQALVNIMRTYTYEKLLWTTSRVLKVLSVCSSNKPAIVEAGGMQALGLHLTDPSQRLVQNCLWTLRNLSDAATKQEGMEGLLGTLVQLLGSDDINVVTCAAGILSNLTCNNYKNKMMVCQVGGIEALVRTVLRAGDREDITEPAICALRHLTSRHQEAEMAQNAVRLHYGLPVVVKLLHPPSHWPLIKATVGLIRNLALCPANHAPLREQGAIPRLVQLLVRAHQDTQRRTSMGGTQQQFVEGVRMEEIVEGCTGALHILARDVHNRIVIRGLNTIPLFVQLLYSPIENIQRVAAGVLCELAQDKEAAEAIEAEGATAPLTELLHSRNEGVATYAAAVLFRMSEDKPQDYKKRLSVELTSSLFRTEPMAWNETADLGLDIGAQGEALGYRQDDPSYRSFHSGGYGQDALGMDPMMEHEMGGHHPGADYPVDGLPDLGHAQDLMDGLPPGDSNQLAWFDTDL
# How the values were obtained:
# [1] = biological target: T1, VE-cadherin (wild type, mouse); assay: co-IP
# [2] = biological target: T2, Y685F-VE-cadherin (knock-in mutant, …); assay: co-IP
binder,measurement,setting,value
B1,β-catenin/VE-cadherin ratio in the VE-cadherin immunoprecipitate (densitometry),[1],1.14
same,β-catenin/VE-cadherin ratio in the VE-cadherin immunoprecipitate (densitometry),[2],0.798
